Laboratory results as given in patent US20250357519A1, “APPLICATIONS OF O2-INSENSITIVE FORMATE DEHYDROGENASE” (UNIVERSITY OF MARYLAND, BALTIMORE, priority 2022, published 2025).

Substrate: O=CO
Test: purified protein, by the assay type

B1: Desulfovibrio vulgaris Hildenborough (DvH) FDH2, recombinant Strep-tag II-tagged (FDH2^Rec), large subunit DVU2482 SEQ ID NO: 31, small subunit DVU2481 SEQ ID … (protein)
chain: AELKIAKAKVTPSVCCFCAVGCGLLVYTDTQTGRSINIEGDPDHPTNEGTLCPKGASIWQTTERSKRVTKVLYRAPGAAAWEEKSWDWALPRIARKIKETRDATFELTNDKGQTVNRTRGIASVGSAAVDNEEGWLMQAMMRALGLVYIESHARIUHSSTVGALAESYGRGAMTNHWIDLKNSDVILIMGSNAAENHPISFKWVTRAQERGATLIHVDPRFTRTSAKADIHAHIRSGTDIAFFGGLIRYIMENDLFFRQYVVDYTNASYIVGADYGFADGLFTGFDAEKGTYNTKKWAFAADENGMTLKDPTLNDPRCVFQLMKAHYARYDRKTVSDVTGISEEQLATLWSTFASTGKPDRAGTILYAMGQCQHTVGVQNIRALSMIQLLLGNIGIAGGGVNALRGESNVQGTTDISLLCDNLSGYLPTPKASWATFDDYVKGTTPVDKDPKSANWWSNRGKYLASYMKSVYPTASHQDGYLWHPKVDDGKITDYSWLQIFERMSKGGFKGAFVWGQNPCAGGANAGKNRKAMETLDWMVVVNLFENESSLFWKGPGVDPAKVKTEVFFLPACMSVEKGGSIANSGRWLQWREPGPKPMGDSRSDGDIVLDLYDEIRKLYREEKGAFPEPVLALDTDYRTDGKYDHHKVAKTLNGKFLTDVTIGDKTYKAGQQVPGFAMLQADGSTTSGCWIFTGCYTDAGNMMARRDRTQTPEQAAIGLFPNWSYAWPANRRILYNRAAVDMTGKPFDPKRAVIAWNGEKWVGDVPDGGWKPGEKLPFIMIREGRGQLFGPGRVDGPFPEHYEPFESPLESHPFSKQRVNPTALAFSHEPKAVRDKRYPFICTTYRVTEQWQSGTMTRNTGWLKEMQPEGFCEISRELAKELGIANGDAVVLESLRGKVQVVAIVTPRLKPFKVMGEVMHEVGIPWQFGWGQHVGKGDSANLLSPSVGDPNTGIPETKVFMVNLRKA
B1 gave a Km (other: 2 mM BV (anaerobic), full progress curve, calculated from kcat and kcat/Km, pH 8.0, 25.0 °C) of 2.1 ± 0.1 µM, a Km (other: BV (2 mM), anaerobic, initial velocities, 3 replicates, pH 8.0, 25 °C) of 3.5 ± 0.9 µM and a Km (other: BV (20 mM), anaerobic, initial velocities, 3 replicates, pH 8.0, 25 °C) of 7 ± 3 µM. The Km (other: DCPIP (air), full progress curve, calculated from kcat and kcat/Km, pH 8.0) was 4.5 ± 0.4 µM, the Km (other: DCPIP (anaerobic), full progress curve, calculated from kcat and kcat/Km, pH 8.0) was 3.7 ± 0.3 µM and the Km (other: PES/DCPIP, air, initial velocities, 10 replicates, pH 8.0) was 7 ± 1 µM. It also gave a Km (other: PES/DCPIP, anaerobic, initial velocities, 5 replicates, pH 8.0) of 5.5 ± 0.5 µM.
